Measured values from the domain aggregation screens of Martell et al. (2025).

Experiment: soluble fraction after stress (log2 fold change); higher = more stays soluble; pooled small domains, quantitative proteomics
Conditions: stress: 75 degC
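Further: 20 min heating vs room temperature control held 20 min.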

HMKAGEDAVQKAVLEAVAESAAAVADYKAGSERALNFIVGKVMKKTRGKASAAEVHRLVREEVDR
soluble fraction (log2): 0.0653

HMKAILHQESRSGFANATVIGGLDKFLDTNWNQLSKYIKKIETPYSDRSLEDRKIWISTILGILSTEI
soluble fraction (log2): 0.279

HMKALHEEIAEKIQEQILRSNLAPGDKLDTELELAARYGVSRSTIRQALIQLESAGLIDRLHGRGTFVAD
soluble fraction (log2): 0.59

HMKAPDSQYKPLTDFQTDASFQKLDAYLRNRYPAMLANAVVYDVLRTPDAISYRVNYQVDNKMITINAAVT
soluble fraction (log2): -1.66

HMKAPLTFVIEGKEYEAFDQYKTGAELKQLAGIPLDTELFLSISKPYQDELIENEKQVNLARPETEYFFVK
soluble fraction (log2): 0.522

HMKAQTVPQFVGMTMTEAEEKASELGITLIEGAVVDSVEPKDTILTQDVDEGTEITGKMEIMVTISS
soluble fraction (log2): 0.324

HMKARLRRVFQIYYGDAYSIMKALKETFPLQTIVHEPRTNSIVVDTPDEETATKIGDVVSAL
soluble fraction (log2): -0.771

HMKDANIQIGKRLREARLNMNLEKSEIADVLGVTVEHYRKLEAGVMGISVDKVLTLYHKYGIDPTYLITG
soluble fraction (log2): -3.36

HMKDEGSLKVIGQMVVIGIPQSEAKRFANTYTVAQIRAALQYTQKRSEDKNASKLENVAAYFRQALVRNWG
soluble fraction (log2): -2.57

HMKDHKSKWMAKTELDSIAKNLSKKHAISLDYEEDGTRFYAGGQSPLGIGRLFTVFVAPRNGHWSDQLR
soluble fraction (log2): 0.194

HMKDLIGEAKAKELALGHAKLSASDVTFIHVELDWENGRRVYDVEFYSGAKEYDYEIDAKTGEIVSFDY
soluble fraction (log2): -1.23

HMKDLQHLVGEKGTTVTPLRPSGIALIKGSRYDVVSEGSFIQQGVAVEVIKVEGRRVVVSPLQED
soluble fraction (log2): -0.722

HMKDLSMPDVMGSSLNDAKKALTELGIMDITVRYVESGSSEGSIVGMEPPAGSKFAADGKVVLQVSSGS
soluble fraction (log2): 0.542

HMKDMKISTQNILKELATNYPDQTAFRKNVIESTAKSMGYTGKDFYPMLTAETRVKIGTYDLSALLQTV
soluble fraction (log2): -0.38

HMKDPSFELMSVAESFYRSGNVDHAVYALEKYLEVYADGDYTDRAHDLLSQARKGLTYPHGYPPLQI
soluble fraction (log2): -1.26

HMKDRDISNAVLNILSKDSDHNYNYKQIASVLGVKDPFVRKRIVSVLAQLTKNGQLEEISRGKYQIKN
soluble fraction (log2): -0.478

HMKDRNISSSVLEILSKDPDHTYNYKQIAALLGVKDAFIRKRIVTLLAQLAKDGHLDEISRGKYQIK
soluble fraction (log2): -1.22

HMKDVVAPMSGRVVRLMVAAGDEVVKRQALVVVEAMKMENVLTAPKEGRIKKVPVREGMTVEVGQTLVSFE
soluble fraction (log2): -1.88

HMKDYKSALQELIQSGDKRVISYHTLKETGPSHNREFEAAVKLDGNIILGVGKGKTKKEAEQNAAHEALKK
soluble fraction (log2): -0.0221

HMKDYKSSLQERVQAVGGGQLIYRVNREEGPDHSKTFYMDLFLGDRLIGTGSGRNKKQAEQQAAKEAIERG
soluble fraction (log2): -0.283

HMKDYKTIFQELIQKKHKTSPIYKSYEYNDMFKAEVYVNDKSFADGIGKSKKEAETDAAKKALEKIEMA
soluble fraction (log2): -0.0428

HMKDYQGEISVVASGERIDVYLFNYFNLFSRTKIKNHIKNGNILVNENIISPSYILKQNDKIAFNLGAPY
soluble fraction (log2): -2.27

HMKDYQGNILIQSEGDRIDKFLFKYFNSFSRTKIKNHIINGNILVNDKNTIPAYVLKINDKISYDLSTSVK
soluble fraction (log2): -1.9

HMKEAITVIGGKNNITFDASAQAEIGIYSMDGVQIQKKTISDNERIDLPAGMYVVTVKTGQANVSKVVVV
soluble fraction (log2): -0.553

HMKEDSTIIERIISNLSSASLKTQKAFEYKLTDLMFRFSEGEYEWSSAMEVIREELLPFLNK
soluble fraction (log2): 0.0891

HMKEETEMVTIPDVTGKPLTEAANLLREAKLDYLAESTGTSVTKQMPLPGAEVMVNTTVLLYTG
soluble fraction (log2): 0.157

HMKEEVMVPNVVGKELSAALLEMQVKELYPKLQLKYSNFVDDKGTVLEQSPPAGSIVKAGRRINLVVSRGA
soluble fraction (log2): 0.106

HMKEIKAPNKINAHLIEEWRSQHPTELFPEEKVDLIYYKGEEYYFVIEEKNELGEIEEWYFAYDGGIDYV
soluble fraction (log2): 0.372

HMKEILTNESIIQFVKDKVSEEQIIYKINNSPIDFKLDVNSMVSLAKQNVSSTIIIAMENAMNN
soluble fraction (log2): -1.28

HMKELLQEMIMDILRAIASPNIDIKRKTLDLVLDLITPRNIDNVTGMLKTEVVKSQSENTSDVG
soluble fraction (log2): -1.58

HMKELTYSDFRKAYPDIQGNLFGMAERYITALDWTEVAAKVETDEELRKERDIFYLVKTYIRKYVQ
soluble fraction (log2): -1.86

HMKELVAGQTVRVHHSIGFGQTGTVTALNSLKTTLPNGLRTNTASILFQNNEKVVLPISNFDIIES
soluble fraction (log2): -0.0164

HMKELVEDFASRISNARQSKGWNQSELAKRMAETVNVVKSAESGKSPTDSVIKKLERVLGIILM
soluble fraction (log2): -0.778

HMKEQLITVYVSGAVARPGLYELPAGIRAQEAVEAAGGFTEAANHEKVNLAKKLKDGSQVNVPALK
soluble fraction (log2): -0.122

HMKEQYDLNDREQQFISLVANGLNNKEIAETLFLSEGTVRNYLSNLLDKLGLRDRTQLAIFFYQHL
soluble fraction (log2): -2.01

HMKERLLDPYKDFIVNYLQKYPYTPAAVMHDKLKESYPDFPKVDPKTIYNFVMLLRRDFNIPKV
soluble fraction (log2): -0.842

HMKETERKILQAVLGLPLKYRDVIHLFYYEEMSVKEIAEVLHRQESTVTSQLTRARGILKKNL
soluble fraction (log2): 0.264

HMKETLSDTVSRKLEDMITTQMKAGNRLPTEMVLAEMYSVGRSTIRESLKALSSKGLIVRKKDGTFVSDRV
soluble fraction (log2): -0.422

HMKEVKAPMPGMVLRVEVAPGQEVQEGDPLLVLEAMKMENNLKSPASGTIKSVHVEAGKAVEKGAVLVVF
soluble fraction (log2): -0.0661

HMKEVKRDQVIEAARKLFHQFGFKKVSMDEIAKEAGVTKKTIYMYFESKEELLKYFIQEEISN
soluble fraction (log2): -0.373

HMKEVVKVTITPSEKLKSQYPDALVSIDGKFYDLGILNNPVEFYMDKDHKISIIWSTAELVESFRI
soluble fraction (log2): -0.000631

HMKEYRKEGHLYFVTEDRNNEIYLWDFTDKPKHEFKEIITSVELQKVAKEGAMLQYKNGKYELYS
soluble fraction (log2): -0.78

HMKFDVNAAIRAVLNVTVDKGATLERIMKETNLTSDQLVLPIALLMKTERLHFKRSGTHEVYVSVGKAPDK
soluble fraction (log2): -3.79

HMKFGEQIKERRQELDLTQAEVAEKLFVTRQAVSNWEHNKTYPDLNMLVKISNVYQISLDSLLR
soluble fraction (log2): -1.37

HMKFHENLIALRRREGWSQEELGNRIGVTRQTVSKWELGLTTPELEKLVQLADVFGMTTDQLVGR
soluble fraction (log2): -0.295

HMKFNLWLSEKLKKLGLTQRKLAEQAGVSPATVSRWLSGEFEPDLTNLRKINQVLGVPERELFLQLGL
soluble fraction (log2): -0.193

HMKFPNVGENLRLLRQEMGISLDKASKMTGVSKAMLGQIERGESSPTVSTLWKISSGFKINFTTLLSE
soluble fraction (log2): -2.92

HMKFPPASDIRRMRKAIDVTQTELAKQSGVSQSTIAKIERGRISASYDTVVKLFETLDEMAK
soluble fraction (log2): -0.405

HMKFTPPTLEQIKNEMLLKTDEYNADIQSDRFFTYYDSNGWMVGKNKMKKFLVSLVAVFAATSA
soluble fraction (log2): -0.786

HMKFYIHEIIGFNAVDKVAGIVGKVININEDSPQKKLVVNYNGKEVFIPLVDEIVRKIDKQKNEVLITMP
soluble fraction (log2): 0.00585

HMKGEIEELLYEEVTKDNNTTFLRIYIKLNDEYNTLLNLGIIGIKTEEKVNELVNLGYKKVL
soluble fraction (log2): -4.19

HMKGISRVTMELIIDALKKETEPRTVQWIAEKTGLATQTTYRYLQYMVSEQTVEALNVYGKVVSLKAK
soluble fraction (log2): -0.649

HMKGKWKPIILWQLSKAPQSLSGLRHSIAGISQKMLIQHLNELIHFGFVVRTTFEGYPLKVEYDLTDRGR
soluble fraction (log2): -0.196

HMKGLDAAVVDLFKSKGASIVFAGNRLSLSGEVADQATKDELLAKAKAILASLGASVSLDDKLMVKGAKAS
soluble fraction (log2): 0.0761

HMKGMIKVASMSLGADLGLYSRHLKYLGIVHRVVEESGGQSVYIQKLNDLHTAKESLELYLKNELKI
soluble fraction (log2): -2.56

HMKGQNRSEITAGARVKVVQKQDQRTGALTEGIVRDILTRSPHHPHGIKVRLESGIVGRVKDVL
soluble fraction (log2): -0.312

HMKGSIMIETILKELKKNNKGFNFLLEKFDISEDELMKIINDLIHDKKVFLNSNNKYEIVSD
soluble fraction (log2): -0.72

HMKGTVLAPGIILNADDQRFTYLQEDVASVAKDGAAIVLKQGDEVDFIADGQTAKQIYLTKT
soluble fraction (log2): 0.289

HMKGVPGIGDYVKLSGGSTVGKVLSISGKKAEVAFGLLRTTTELSKLEKVRKPKELLQSGVSS
soluble fraction (log2): -0.0317

HMKGVTVDGDNITVDGEKQTLISVNKNLDGDVVSYTYRTADGKLRTSRNVEVAQEINKQQLLKSIDAQ
soluble fraction (log2): 0.0529

HMKGWPDREQAEKIWQQGIDYAIEHHTMSPQIVKEYIFHTQGIARSAALIAARLPDMDTEKAYVLGLLHD
soluble fraction (log2): -0.377

HMKIAEALNLRGDADSYERQEAIWLLEHIVGMSALELKYRGEQDLTEDQLQQYRSGLQRLEQGEPLAYVIG
soluble fraction (log2): -0.965

HMKIDLKQIEGVLDELAKVKGSLITILQKTQETYGYLPKEAIIYISERTGIAESEIMGVATFYTQFRL
soluble fraction (log2): -0.45

HMKIDLTPQEEKIYSVLETELTLDEIIMKTSIKAGEALAILMDLELKKLVASVAGGKYRRKA
soluble fraction (log2): 0.386

HMKIEETLGKTAQVYIPIPQYLSGIGKVTLSVRGSLRELDAMTEEEKIPSNTIVRIVKVQDQVLFVKRA
soluble fraction (log2): -3.77

HMKIHNSIREITDFDRKQNSNIPSDAKYRIVFYTPQGNKTIIPEELQGLQYYRSKELAEIALNKKLNSN
soluble fraction (log2): -0.197

HMKILKQLEAIIEKEGLNESAKQFYLREISELDKEKQQEIINLVDKMEQAGFKNNLASAFSEVTEDIPQF
soluble fraction (log2): -0.138

HMKILNYQSLVGKKGITKSMLRPAGIVEIEGRRYDVVTRGEFIEPGKMITVDEVQGNRIIVQIERE
soluble fraction (log2): -0.758

HMKIPIIYQPLKNAKRIKIYIPYELKELRTIFKKINTTFWHPNQKLWSIIYTQENVALIKNLFGKNYKIVN
soluble fraction (log2): -0.499

HMKIQEVDYSTFLNMLNEKSIAQVEIQDNQIAFNSNQEGNKQIYVTGRIEEDTELVNRLQAAGVQFSRV
soluble fraction (log2): 0.0484

HMKIRIIKTASNAKAVQIVSYKNNKRIVLQHIGSAHTDETLNDLKILAEEWIKDYNHQLSIF
soluble fraction (log2): -2.88

HMKISDLPAAQVYREIVHAWPKAAAYADLAPINNGGMQRWRDVVHEWVLRGYNPANLRGMLEWYKAGIPTR
soluble fraction (log2): -0.731

HMKISDMIETNLKFLRGKHSISQAELAESLGIPRTTLSAYERGFVEPNIELMLKMAKYFNVSLDDLIAYN
soluble fraction (log2): -2.07

HMKISQSRKAGKLVLESELKRGGVSLDQYRGGRMSRILELIGVKSLNELLTDLGTGKKTGALVAERFFSGL
soluble fraction (log2): -0.618

HMKITFNPVSSGRLDIILAEKTGYTRSYVKQLVEKQAVTINGEAAKKSGQNVKAGDEIALDEP
soluble fraction (log2): 0.151

HMKITIDSVERDETFRLIWGTGWKPKNKIQELAAIQAKKNGLGRMNEVAGLAAWRGIWQQVAEQVAQEVL
soluble fraction (log2): -2.03

HMKITKIWFTADHIFGRDEEGKEYSQSLLWYPKLSAASDEERSQYTFGYDGIHWRSLDEDISFESF
soluble fraction (log2): -3.01
